Where a chain is given by its changes, count along the chain named. Names may count otherwise.

The target of one series is T1, ALE1p (=LCA1p) (Saccharomyces cerevisiae, UniProt Q08548).
T1 sequence (Q08548 1-619): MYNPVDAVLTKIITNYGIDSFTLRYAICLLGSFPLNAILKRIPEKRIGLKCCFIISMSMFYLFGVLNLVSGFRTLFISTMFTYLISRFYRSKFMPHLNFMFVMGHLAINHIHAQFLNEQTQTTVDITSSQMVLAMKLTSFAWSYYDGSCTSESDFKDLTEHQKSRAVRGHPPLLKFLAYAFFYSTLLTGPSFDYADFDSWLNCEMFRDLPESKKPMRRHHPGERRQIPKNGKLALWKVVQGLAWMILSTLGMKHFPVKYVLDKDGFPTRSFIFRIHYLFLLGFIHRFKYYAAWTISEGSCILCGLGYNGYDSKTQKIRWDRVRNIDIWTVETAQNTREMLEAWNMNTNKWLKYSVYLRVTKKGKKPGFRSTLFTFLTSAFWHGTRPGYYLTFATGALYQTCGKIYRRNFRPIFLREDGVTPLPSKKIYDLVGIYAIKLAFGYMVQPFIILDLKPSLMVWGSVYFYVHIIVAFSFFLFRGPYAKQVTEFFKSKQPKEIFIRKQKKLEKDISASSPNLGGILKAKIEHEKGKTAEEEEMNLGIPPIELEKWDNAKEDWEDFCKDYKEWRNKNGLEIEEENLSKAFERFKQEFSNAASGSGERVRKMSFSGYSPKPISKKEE
Particulars: Chen Q et al. 2007; cited from earlier work.

In series [1] the test system is methyl palmitate. As to the kind of experiment: HaFAR mutant library cultivation in 24 well plates in Y. lipolytica SPV603. It is filed as cell-based, Yarrowia lipolytica. The settings on record: second FAR copy in SPV603, 24 well plates. The protocol:
Four individual clones of positive integrants were tested. Cultivation was performed in 24 well plates. Briefly, 2 mL YPD was inoculated from patches of individual clones and incubated for 24 h at 28° C., 1000 rpm. After 24 h OD600 was measured and the cells were centrifuged at 1000 rpm (Table 23). The cell pellets were resuspended in 1 mL S2 media and 10 g/L methyl palmitate was added. The cells were incubated for 18 h at 28° C., 1000 rpm. Cultivations were stored at −20° C. until analyzed. Extraction and analysis was performed according to previously established standard protocols using GC-FID.
In a first round four individual isolate from each transformation was tested. Cultivation was performed in 24 well plates. 2 mL YPD was inoculated from patches of individual clones and incubated for 24 h at 28° C., 1000 rpm. After 24 h OD600 was measured and the cells were centrifuged at 1000 rpm. The cell pellets were resuspended in 1 mL S2 media and 10 g/L methyl palmitate was added. The cells were incubated for 24 h at 28° C., 1000 rpm. Cultivations were stored at −20° C. until analyzed. Next, four clones of the best performing positive integrant were tested. Cultivation was performed in 24 well plates. 2 mL YPD was inoculated from patches of individual clones and incubated for ˜28 h at 28° C., 1000 rpm. After 28 h OD600 was measured and the cells were centrifuged at 1000 rpm. The cell pellets were resuspended in 1 mL S2 media and 10 g/L methyl palmitate was added. The cells were incubated for 18 h at 28° C., 1000 rpm. Cultivations were stored at −20° C. until analyzed.
Cell pellets were resuspended with 500 μL 5% NaOH (in methanol) then heated for 1 hour at 85° C. Samples were cooled down and then acidified by adding 400 μL 5N HCl. Next, 500 μL chloroform (containing 1 mM C17:0 heptadecanoate internal standard) were added to samples. Samples were mixed vigorously then spun down for 2 minutes at 13,000 RPM using a table top centrifuge. 450 μL chloroform were transferred to a new vial then evaporated at 85° C. for ˜15 minutes. Samples were then resuspended in 50 μL BSTFA (and were now ready for GC analysis). After analysis of the fatty alcohols samples were diluted ˜1:10 and rerun on the GC to improve peak separation of the fatty acid peaks.
All quantifications were based on the concentration of the internal standard. The concentration of the internal standard C17ME is 1 mM. The final concentration of fatty alcohols as well as fatty acids were calculated based on the effective carbon number compared to the internal standard.

The test system of series [2] is methyl palmitate. Briefly: HaFAR mutant library cultivation in shake flasks. Format: cell-based, Yarrowia lipolytica. The settings on record: shake flask experiments, 10 g/L methyl palmitate. How it is done:
In a first step a shake flask experiment of the respective strains was performed to analyze fatty alcohol and fatty acid formation over time. The best performing clone of the strains expressing HaFAR, HaFAR S195A and HaFAR S418A were tested. 10 mL YPD was inoculated from patches of individual clones and incubated for 24 h at 28° C., 250 rpm in a 125 mL shake flask. Next, 25 mL YPD were inoculated with 5 mL starter culture in 500 mL shake flasks and incubated for 24 h at 28° C., 250 rpm. The cells were harvested and the pellets were resuspended in 15 mL S2 media and 10 g/L methyl palmitate was added. OD600 was measured and subsequently methyl palmitate was added. […] 4×0.5 mL samples were taken every 24 h and stored at −20° C. until analyzed according to a previously established standard protocol (FIG. 47 and FIG. 48). To improve sampling and reduce the standard deviation, samples were transferred directly into GC crimp vials and stored until analyzed.
Thus, sampling was reduced to 20 h. In previous 24 well plate bioconversion experiments the measured biomass was ˜2× higher compared to the shake flask experiment. […] The cells were harvested and the pellets were resuspended in 10 mL S2 media and 10 g/L, OD600 was measured and subsequently methyl palmitate was added. […] 4×0.5 mL samples were taken and analyzed according to a previously established standard protocol (FIG. 49). […]

`[Zn+2]` [Zn2+]: the inhibitory concentration result at ALE1p (=LCA1p) is reported as “above 0.1 mM”.

B1: HaFAR (S418A) (protein)
chain: MVVLTSKETKPSVAEFYAGKSVFITGGTGFLGKVFIEKLLYSCPDIENIYMLIREKKGLSVSERIKQFLDDPLFTRLKDKRPADLEKIVLIPGDITAPDLGINSENEKMLIEKVSVIIHSAATVKFNEPLPTAWKINVEGTRMMLALSRRMKRIEVFIHISTAYTNTNREVVDEILYPAPADIDQVHQYVKDGISEEDTEKILNGRPNTYTFTKALTEHLVAENQAYVPTIIVRPSVVAAIKDEPLKGWLGNWFGATGLTVFTAKGLNRVIYGHSSYIVDLIPVDYVANLVIAAGAKSSKSTELKVYNCCSSSCNPVTIGTLMSMFADDAIKQKSYAMPLPGWYIFTKYKWLVLLLTFLFQVIPAYVTDLSRHLIGKSPRYIKLQSLVNQTRSSIDFFTNHSWVMKADRVRELYASLAPADKYLFPCDPTDINWTHYIQDYCWGVRHFLEKKSYE
Take B1: the “Z11-16OH titers compared to the HaFAR double copy strain” value with methyl palmitate [1] is reported as “distinct increase of Z11-16OH titers”. The molecule further showed a Z11-16OH titer in the series with methyl palmitate [2] of around 80 mg/L.

B2: HaFAR (S195A) (protein)
chain: B1 chain with S195A, A418S
Take B2: the “Z11-16OH titers compared to the HaFAR double copy strain” value with methyl palmitate [1] is given as “distinct increase of Z11-16OH titers”. The Z11-16OH titer with methyl palmitate [2] was around 120 mg/L.

The values are drawn from US11866760B2, “Microorganisms for the production of insect pheromones and related compounds” (Provivi, Inc., priority 2017, dated 2024).
